Columns and labels:
trypsin [1] = biological target: trypsin (UniProt P00760); test: elution from trypsin beads
[2] = biological target: human neutrophil elastase (human) (UniProt P08246); test: acid elution from HNE beads
trypsin [3] = biological target: trypsin (UniProt P00760); test: acid elution from trypsin beads
anhydro-trypsin [4] = biological target: anhydro-trypsin (UniProt P00760); test: elution from anhydrotrypsin beads
anhydro-trypsin [5] = biological target: anhydro-trypsin (UniProt P00760); test: loss of titer on anhydrotrypsin beads
anhydro-trypsin [6] = biological target: anhydro-trypsin (UniProt P00760); test: acid elution from anhydrotrypsin beads, experiment 1
anhydro-trypsin [7] = biological target: anhydro-trypsin (UniProt P00760); test: acid elution from anhydrotrypsin beads, experiment 2
trypsin [8] = biological target: trypsin (UniProt P00760); test: immobilized trypsin, CBS buffer pH 6.5, pH 2.2 elution
trypsin [9] = biological target: trypsin (UniProt P00760); test: immobilized trypsin, TBS buffer pH 7.5, pH 2.2 elution
[10] = biological target: M13 MB48 phage (BPTI:VIII fusion display phage) (bovine BPTI fused to phage M13 gene VIII protein); test: strain M13MB48 batch 5; protein A-agarose alone
[11] = biological target: human neutrophil elastase (human) (UniProt P08246); test: HNE beads, pH 2.0 elution
[12] = biological target: human neutrophil elastase (human) (UniProt P08246); test: HNE beads, pH 2.5 elution
[13] = biological target: human neutrophil elastase (human) (UniProt P08246); test: HNE beads, pH 3.0 elution
[14] = biological target: human neutrophil elastase (human) (UniProt P08246); test: HNE beads, pH 3.5 elution
[15] = biological target: human neutrophil elastase (human) (UniProt P08246); test: HNE beads, pH 4.0 elution
[16] = biological target: human neutrophil elastase (human) (UniProt P08246); test: HNE beads, pH 4.5 elution
[17] = biological target: human neutrophil elastase (human) (UniProt P08246); test: HNE beads, pH 5.0 elution
[18] = biological target: human neutrophil elastase (human) (UniProt P08246); test: HNE beads, pH 5.5 elution
[19] = biological target: human neutrophil elastase (human) (UniProt P08246); test: HNE beads, pH 6.0 elution
[20] = biological target: human neutrophil elastase (human) (UniProt P08246); test: HNE beads, pH 7.0 elution
[21] = biological target: human Cathepsin G (human) (UniProt P08311); test: Cat-G beads, pH 2.0 elution
[22] = biological target: human Cathepsin G (human) (UniProt P08311); test: Cat-G beads, pH 2.5 elution
[23] = biological target: human Cathepsin G (human) (UniProt P08311); test: Cat-G beads, pH 3.0 elution
[24] = biological target: human Cathepsin G (human) (UniProt P08311); test: Cat-G beads, pH 3.5 elution
[25] = biological target: human Cathepsin G (human) (UniProt P08311); test: Cat-G beads, pH 4.0 elution
[26] = biological target: human Cathepsin G (human) (UniProt P08311); test: Cat-G beads, pH 4.5 elution
[27] = biological target: human Cathepsin G (human) (UniProt P08311); test: Cat-G beads, pH 5.0 elution
[28] = biological target: human Cathepsin G (human) (UniProt P08311); test: Cat-G beads, pH 5.5 elution
[29] = biological target: human Cathepsin G (human) (UniProt P08311); test: Cat-G beads, pH 6.0 elution
[30] = biological target: human Cathepsin G (human) (UniProt P08311); test: Cat-G beads, pH 7.0 elution
[31] = biological target: human neutrophil elastase (human) (UniProt P08246); test: HNE beads, final TBS-TWEEN wash
[32] = biological target: human Cathepsin G (human) (UniProt P08311); test: Cat-G beads, final TBS-TWEEN wash
[33] = biological target: human neutrophil elastase (human) (UniProt P08246); test: HNE beads, SUM of all pH elution fractions
[34] = biological target: human neutrophil elastase (human) (UniProt P08246); test: HNE beads, abbreviated fractionation, WASH
[35] = biological target: human Cathepsin G (human) (UniProt P08311); test: Cat-G beads, SUM of all pH elution fractions
[36] = biological target: human neutrophil elastase (human) (UniProt P08246); test: HNE beads, abbreviated fractionation, pH 2.0
[37] = biological target: human neutrophil elastase (human) (UniProt P08246); test: HNE beads, abbreviated fractionation, pH 3.5
[38] = biological target: human neutrophil elastase (human) (UniProt P08246); test: HNE beads, abbreviated fractionation, pH 7.0
[39] = biological target: human neutrophil elastase (human) (UniProt P08246); test: HNE beads, abbreviated fractionation, SUM of pH fractions
[40] = biological target: M13 MB48 phage (BPTI:VIII fusion display phage) (bovine BPTI fused to phage M13 gene VIII protein); test: strain M13MB48 batch 4; NRS IgG added
[41] = biological target: M13 MB48 phage (BPTI:VIII fusion display phage) (bovine BPTI fused to phage M13 gene VIII protein); test: strain M13MB48 batch 5; NRS IgG added
M13 mp18 phage [42] = test: strain M13MP18; NRS IgG and protein A-agarose
M13 mp18 phage [43] = test: strain M13MP18; IgG from normal rabbit serum added
[44] = biological target: M13 MB48 phage (BPTI:VIII fusion display phage) (bovine BPTI fused to phage M13 gene VIII protein); test: strain M13MB48 batch 4; NRS IgG and protein A-agarose
[45] = biological target: M13 MB48 phage (BPTI:VIII fusion display phage) (bovine BPTI fused to phage M13 gene VIII protein); test: strain M13MB48 batch 5; NRS IgG and protein A-agarose

human neutrophil elastase (human), sequence (P08246 30-247 limits assumed): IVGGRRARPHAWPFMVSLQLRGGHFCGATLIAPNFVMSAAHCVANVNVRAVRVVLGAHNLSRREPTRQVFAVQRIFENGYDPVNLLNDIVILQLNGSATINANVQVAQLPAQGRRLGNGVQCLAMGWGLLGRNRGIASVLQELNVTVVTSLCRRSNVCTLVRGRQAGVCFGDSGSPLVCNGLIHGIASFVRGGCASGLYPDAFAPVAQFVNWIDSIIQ
human Cathepsin G (human), sequence (P08311 21-244 limits assumed): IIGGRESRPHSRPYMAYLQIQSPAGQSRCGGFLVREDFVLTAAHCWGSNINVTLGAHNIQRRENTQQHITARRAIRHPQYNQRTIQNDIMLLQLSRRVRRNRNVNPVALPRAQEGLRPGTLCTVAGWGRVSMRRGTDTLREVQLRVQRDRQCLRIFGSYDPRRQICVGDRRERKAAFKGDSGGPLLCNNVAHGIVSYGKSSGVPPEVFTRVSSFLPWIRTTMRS
anhydro-trypsin, sequence (P00760 24-246): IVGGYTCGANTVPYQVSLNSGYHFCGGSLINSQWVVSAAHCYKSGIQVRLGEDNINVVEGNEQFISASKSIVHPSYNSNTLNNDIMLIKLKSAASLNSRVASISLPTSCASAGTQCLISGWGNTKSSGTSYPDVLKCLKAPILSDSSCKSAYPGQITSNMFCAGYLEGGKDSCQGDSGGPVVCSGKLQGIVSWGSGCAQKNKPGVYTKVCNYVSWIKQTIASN
trypsin, sequence (P00760 24-246): as above

## M13 mp18 phage
Trypsin [1]
  eluted phage, percentage of input: 0.00023%
  relative binding (to M13MP18): 1
[2]
  eluted phage, percentage of input: 0.0003%
  relative binding (to M13MP18): 1
Trypsin [3]
  eluted phage, percentage of input: 0.0005%
  relative binding (to M13MP18): 1
anhydro-trypsin [4]
  eluted phage, percentage of input: 0.1%
  relative binding (to M13MP18): 1
anhydro-trypsin [5]
  pfu post incubation, percentage of input: 121%
anhydro-trypsin [6]
  eluted phage, percentage of input: 0.2%
  relative to M13MP18: 1
anhydro-trypsin [7]
  eluted phage, percentage of input: 0.3%
  relative to M13mp18: 1

## MK phage
Trypsin [8]
  percent of input phage recovered: 0.00028%
Trypsin [9]
  percent of input phage recovered: 0.00034%

## protein A (agarose beads)
[10]
  percentage of input phage (pfu) remaining: 58%

## MA-ITI phage (ITI-D1-III fusion display phage) (from UniProt P02760 22-77)
[11]
  fraction of input: 5e-08
  total pfu in sample: 17000 pfu
[12]
  fraction of input: 4.1e-08
  total pfu in sample: 14000 pfu
[13]
  fraction of input: 8.5e-08
  total pfu in sample: 29000 pfu
[14]
  fraction of input: 1.4e-07
  total pfu in sample: 49000 pfu
[15]
  fraction of input: 2.1e-07
  total pfu in sample: 72000 pfu
[16]
  fraction of input: 3.5e-07
  total pfu in sample: 120000 pfu
[17]
  fraction of input: 9.1e-07
  total pfu in sample: 310000 pfu
[18]
  fraction of input: 4.7e-06
  total pfu in sample: 1.6e+06 pfu
[19]
  fraction of input: 2.9e-06
  total pfu in sample: 1e+06 pfu
[20]
  fraction of input: 4.7e-06
  total pfu in sample: 1.6e+06 pfu
[21]
  fraction of input: 7e-07
  total pfu in sample: 320000 pfu
[22]
  fraction of input: 5.9e-07
  total pfu in sample: 270000 pfu
[23]
  fraction of input: 7.8e-07
  total pfu in sample: 360000 pfu
[24]
  fraction of input: 9.6e-07
  total pfu in sample: 440000 pfu
[25]
  fraction of input: 9.6e-07
  total pfu in sample: 440000 pfu
[26]
  fraction of input: 1.5e-06
  total pfu in sample: 670000 pfu
[27]
  fraction of input: 2.4e-06
  total pfu in sample: 1.1e+06 pfu
[28]
  fraction of input: 2.6e-06
  total pfu in sample: 1.2e+06 pfu
[29]
  fraction of input: 5e-06
  total pfu in sample: 2.3e+06 pfu
[30]
  fraction of input: 1.3e-05
  total pfu in sample: 6.1e+06 pfu
[31]
  fraction of input: 5.3e-06
  total pfu in sample: 1.8e+06 pfu
[32]
  fraction of input: 1.5e-05
  total pfu in sample: 7.1e+06 pfu
[33]
  fraction of input: 2e-05
  total pfu in sample: 5.7e+06 pfu
[34]
  fraction of input: 1e-05
[35]
  fraction of input: 3e-05
  total pfu in sample: 1.4e+07 pfu
[36]
  fraction of input: 1e-06
[37]
  fraction of input: 3e-06
[38]
  fraction of input: 1e-05
[39]
  fraction of input: 1.4e-05

## normal rabbit serum / IgG purified from normal rabbit serum (antibody)
[40]
  percentage of input phage (pfu) remaining: 125%
[41]
  percentage of input phage (pfu) remaining: 105%
M13 mp18 phage [42]
  percentage of input phage (pfu) remaining: 88%
M13 mp18 phage [43]
  percentage of input phage (pfu) remaining: 104%
[44]
  percentage of input phage (pfu) remaining: 121%
[45]
  percentage of input phage (pfu) remaining: 110%
